Experimental data published in patent publication US12692294B2, “Engineered NRG-1 variants with improved selectivity toward ErbB4 but not against ErbB3” (Amgen Inc., priority 2021, dated 2026).
Changes are numbered by the printed parent chain.

B1: huNRG1(S177-F229) 6xHis: 6xHis-tagged NRG1 fragment S177-F229 without variant mutations (protein)
chain: SHLVKCAEKEKTFCVNGGECFMVKDLSNPSRYLCKCPNEFTGDRCQNYVMASFGGGGEGGGGAGGGGHHHHHH
modifications: 6xHis tag; huNRG1(S177-F229) 6xHis
notes: 6xHis-tagged NRG1 fragment S177-F229 without variant mutations
B2: :huFcSEFL2(desK)vl31(+):G4SG4:huNRG1(S177-F229)(NRGE1C): N-terminal Fc fusion of NRG1 variant SEQ ID NO:117 (protein)
chain: DKTHTCPPCPAPELLGGPSVFLFPPKPKDTLMISRTPEVTCVVVDVSHEDPEVKFNWYVDGVEVHNAKTKPCEEQYGSTYRCVSVLTVLHQDWLNGKEYKCKVSNKALPAPIEKTISKAKGQPREPQVYTLPPSREKMTKNQVSLTCLVKGFYPSDIAVEWESNGQPENNYKTTPPVLKSDGSFFLYSKLTVDKSRWQQGNVFSCSVMHEALHNHYTQKSLSLSPGGGGGSGGGGSHLVKCGEKHKSFCVNGGECFMIEGPSNPSRYLCKCPNEFTGDRCQEDFMASFDKTHTCPPCPAPELLGGPSVFLFPPKPKDTLMISRTPEVTCVVVDVSHEDPEVKFNWYVDGVEVHNAKTKPCEEQYGSTYRCVSVLTVLHQDWLNGKEYKCKVSNKALPAPIEKTISKAKGQPREPQVYTLPPSREEMTENQVSLTCLVEGFYPSDIAVEWESNGQPENNYETTPPVLDSDGSFFLYSDLTVDKSRWQQGNVFSCSVMHEALHNHYTQKSLSLSPGK
modifications: huFcSEFL2(desK)v131(+)G4SG4huNRG1(S177-F229) (NRGE1C)
B3: :huFcSEFL2(desK)vl31(+):G4SG4:huNRG1(S177-F229)(NRGE1D): N-terminal Fc fusion of NRG1 variant SEQ ID NO:126 (protein)
chain: B2 chain with K244S, F256Y, I258V, P261S, N263I
modifications: huFcSEFL2(desK)v131(+)G4SG4huNRG1(S177-F229) (NRGE1D)
B4: huNRG1(S177-F229)(NRGE1C) (E47S_D48A_F49L_M50T) 6xHis: 6xHis-tagged NRG1 variant SEQ ID NO:122; ErbB4 selective agonist without Fc of Example 3 (protein)
chain: SHLVKCGEKHKSFCVNGGECFMIEGPSNPSRYLCKCPNEFTGDRCQSALTASFGGGGEGGGGAGGGGHHHHHH
modifications: 6xHis tag; huNRG1(S177-F229)(NRGE1C) (E47S_D48A_F49L_M50T) 6xHis
B5: huNRG1(S177-F229)(NRGE1D) (E47K_D48L_F49D_M50I) 6xHis: 6xHis-tagged NRG1 variant SEQ ID NO:127 (protein)
chain: B4 chain with K9S, F21Y, I23V, P26S, N28I, S47K, A48L, L49D, T50I
modifications: 6xHis tag; huNRG1(S177-F229)(NRGE1D) (E47K_D48L_F49D_M50I) 6xHis
B6: huNRG1(S177-F229)(NRGE1D) (E47T_D48S_F49L_M50L) 6xHis: 6xHis-tagged NRG1 variant SEQ ID NO:129 (protein)
chain: B4 chain with K9S, F21Y, I23V, P26S, N28I, S47T, A48S, T50L
modifications: 6xHis tag; huNRG1(S177-F229)(NRGE1D) (E47T_D48S_F49L_M50L) 6xHis
B7: huNRG1(S177-F229)(NRGE1D) (E47S_D48S_F49E_M50L) 6xHis: 6xHis-tagged NRG1 variant SEQ ID NO:128 (protein)
chain: B4 chain with K9S, F21Y, I23V, P26S, N28I, A48S, L49E, T50L
modifications: 6xHis tag; huNRG1(S177-F229)(NRGE1D) (E47S_D48S_F49E_M50L) 6xHis
B8: huNRG1(S177-F229)(NRGE1C) (E47S_D48T_F49R_M50V) 6xHis: 6xHis-tagged NRG1 variant SEQ ID NO:123 (protein)
chain: B4 chain with A48T, L49R, T50V
modifications: 6xHis tag; huNRG1(S177-F229)(NRGE1C) (E47S_D48T_F49R_M50V) 6xHis
B9: huNRG1(S177-F229)(NRGE1D) 6xHis: 6xHis-tagged NRG1 variant SEQ ID NO:126 (protein)
chain: B4 chain with K9S, F21Y, I23V, P26S, N28I, S47E, A48D, L49F, T50M
modifications: 6xHis tag; huNRG1(S177-F229)(NRGE1D) 6xHis
B10: huNRG1(S177-F229)(NRGE1D) (E47V_D48T_F49R_M50L) 6xHis: 6xHis-tagged NRG1 variant SEQ ID NO:130 (protein)
chain: B4 chain with K9S, F21Y, I23V, P26S, N28I, S47V, A48T, L49R, T50L
modifications: 6xHis tag; huNRG1(S177-F229)(NRGE1D) (E47V_D48T_F49R_M50L) 6xHis

Molecular target: T1, ErbB4 (Rattus norvegicus, UniProt Q62956)
T1 construct: forming the ErbB2/ErbB4 complex in cardiomyocytes and the ErbB2/ErbB3 complex in Schwann cells; endogenous in cells; host or cells: primary neonatal rat cardiomyocytes (Sprague Dawley pups, 0 to 4 days old)
T1 sequence (Q62956 26-1308): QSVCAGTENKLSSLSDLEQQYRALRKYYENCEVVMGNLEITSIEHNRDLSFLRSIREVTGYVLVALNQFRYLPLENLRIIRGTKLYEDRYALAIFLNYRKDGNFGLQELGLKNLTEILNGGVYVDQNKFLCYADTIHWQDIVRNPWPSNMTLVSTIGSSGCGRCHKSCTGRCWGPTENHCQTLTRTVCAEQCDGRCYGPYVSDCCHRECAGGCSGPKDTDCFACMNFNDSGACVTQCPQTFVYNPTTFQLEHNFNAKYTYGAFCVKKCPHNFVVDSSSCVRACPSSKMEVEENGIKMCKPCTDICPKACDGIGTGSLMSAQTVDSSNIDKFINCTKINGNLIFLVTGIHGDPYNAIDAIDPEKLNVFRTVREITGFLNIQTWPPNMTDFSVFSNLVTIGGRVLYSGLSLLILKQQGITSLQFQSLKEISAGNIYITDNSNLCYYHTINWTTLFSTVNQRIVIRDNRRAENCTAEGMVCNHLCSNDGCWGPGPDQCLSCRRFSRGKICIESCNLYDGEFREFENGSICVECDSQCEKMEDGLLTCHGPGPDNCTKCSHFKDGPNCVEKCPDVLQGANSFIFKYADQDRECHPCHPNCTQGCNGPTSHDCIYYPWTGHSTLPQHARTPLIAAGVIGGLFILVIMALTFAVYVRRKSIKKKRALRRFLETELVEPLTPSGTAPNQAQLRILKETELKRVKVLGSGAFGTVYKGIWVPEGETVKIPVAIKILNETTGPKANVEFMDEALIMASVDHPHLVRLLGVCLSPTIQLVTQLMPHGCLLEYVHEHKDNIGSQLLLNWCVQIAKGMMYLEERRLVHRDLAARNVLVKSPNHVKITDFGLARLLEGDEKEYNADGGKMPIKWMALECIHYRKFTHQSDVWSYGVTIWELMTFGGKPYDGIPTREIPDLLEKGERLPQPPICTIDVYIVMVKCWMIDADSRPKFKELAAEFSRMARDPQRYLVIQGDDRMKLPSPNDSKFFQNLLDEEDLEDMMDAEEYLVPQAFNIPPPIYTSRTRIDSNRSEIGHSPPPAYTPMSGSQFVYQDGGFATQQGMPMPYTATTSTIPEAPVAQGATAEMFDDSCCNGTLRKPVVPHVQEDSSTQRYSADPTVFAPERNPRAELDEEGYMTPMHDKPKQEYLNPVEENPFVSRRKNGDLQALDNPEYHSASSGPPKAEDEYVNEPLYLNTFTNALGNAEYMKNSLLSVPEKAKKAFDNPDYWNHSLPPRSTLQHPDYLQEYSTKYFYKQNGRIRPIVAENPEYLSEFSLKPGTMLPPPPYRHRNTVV
T1 sequence (P06494 23-1257 partner): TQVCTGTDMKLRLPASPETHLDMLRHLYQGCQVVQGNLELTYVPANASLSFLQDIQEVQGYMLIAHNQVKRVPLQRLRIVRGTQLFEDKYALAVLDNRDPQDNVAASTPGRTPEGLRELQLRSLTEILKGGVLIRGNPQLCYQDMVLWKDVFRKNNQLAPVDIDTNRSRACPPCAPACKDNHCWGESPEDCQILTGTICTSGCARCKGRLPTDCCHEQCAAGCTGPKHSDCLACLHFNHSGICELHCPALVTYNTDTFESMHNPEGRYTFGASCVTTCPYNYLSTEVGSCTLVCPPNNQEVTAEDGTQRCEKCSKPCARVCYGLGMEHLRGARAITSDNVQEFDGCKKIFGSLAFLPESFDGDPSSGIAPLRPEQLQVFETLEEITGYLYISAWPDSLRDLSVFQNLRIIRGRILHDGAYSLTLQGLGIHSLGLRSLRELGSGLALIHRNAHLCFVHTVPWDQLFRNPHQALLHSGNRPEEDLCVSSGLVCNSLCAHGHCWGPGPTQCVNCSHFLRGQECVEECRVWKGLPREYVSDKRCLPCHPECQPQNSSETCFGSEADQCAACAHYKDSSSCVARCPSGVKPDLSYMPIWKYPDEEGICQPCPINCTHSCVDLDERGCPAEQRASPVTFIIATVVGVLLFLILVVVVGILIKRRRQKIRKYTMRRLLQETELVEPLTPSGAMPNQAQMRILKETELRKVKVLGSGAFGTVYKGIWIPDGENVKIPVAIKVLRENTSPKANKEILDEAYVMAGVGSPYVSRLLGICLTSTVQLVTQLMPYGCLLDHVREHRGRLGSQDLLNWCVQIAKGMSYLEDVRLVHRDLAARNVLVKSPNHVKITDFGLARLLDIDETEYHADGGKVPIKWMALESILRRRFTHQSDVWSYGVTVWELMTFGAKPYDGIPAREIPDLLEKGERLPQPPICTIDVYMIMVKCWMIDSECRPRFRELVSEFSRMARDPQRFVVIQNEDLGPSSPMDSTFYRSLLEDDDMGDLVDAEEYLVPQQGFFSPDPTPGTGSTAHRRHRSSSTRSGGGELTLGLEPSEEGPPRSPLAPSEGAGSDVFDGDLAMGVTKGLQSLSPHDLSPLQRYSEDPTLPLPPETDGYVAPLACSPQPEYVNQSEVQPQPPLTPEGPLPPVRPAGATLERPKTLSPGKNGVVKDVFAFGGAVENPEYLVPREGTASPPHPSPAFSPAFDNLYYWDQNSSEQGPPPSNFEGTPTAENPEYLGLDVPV
Assay: In vitro phosphorylation of Akt in neonatal rat cardiomyocytes
Format: cell-based
Details: Akt (Serine 473) phosphorylation, neonatal rat cardiomyocytes, 15 minutes treatment; read-out: Cardiomyocyte (CM) (ErbB4) Avg EC50
Protocol: (§1) In Vitro Phosphorylation of Akt in Neonatal Rat Cardiomyocytes and Rat Schwann Cells by Neuregulin Variants
(§2) Specificity of neuregulin variants towards cardiomyocytes (ErbB4) versus Schwann cells (ErbB3) was tested by measuring Akt activity generated by formation of the ErbB2/ErbB4 and ErbB2/ErbB3 complexes. Upon activation by neuregulin, the ErbB4 and ErbB3 receptors dimerize preferentially with the ErbB2 co-receptor, forming the ErbB2/ErbB4 complex in cardiomyocytes and the ErbB2/ErbB3 complex in Schwann cells, both of which signal through the Akt pathway. Neonatal rat cardiomyocytes were isolated from hearts of Sprague Dawley rat pups at 0 to 4 days old according to manufacturer's protocol using the Neomyt kit and plated on Surecoat plates in NS media containing serum (all from Cellultron Life Technologies, Baltimore, MD). Rat Schwann cells were plated in Poly-D-Lysine coated plates with Dulbecco's modified Eagle's media (DMEM) supplemented with fetal bovine serum (Thermo Fisher) and forskolin (Millipore Sigma).
(§3) After a 24-hour incubation in a humidified incubator maintained at 37° C. and 5% CO2, cardiomyocytes and Schwann cells were washed with serum free media and incubated an additional 16 hours in DMEM supplemented with bovine serum albumin (Sigma). Both cell lines were then treated with titrations of the neuregulin variant molecules for 15 minutes, upon which cells were lysed in lysis buffer (Meso Scale Discovery (MSD)). For detection of Akt phosphorylation, lysates were added to the Multi-Spot 96-Well 4-Spot Phospho (Serine 473)/Total Akt plates (MSD), incubated according to the manufacturer's protocol and read in the SECTOR Imager 6000 (MSD). For both cell assays, the percent phosphorylation of Akt was calculated by multiplying the phospho Akt signal by 2, then dividing by the phospho Akt signal added to the total Akt signal and then multiplying by 100. The phosphorylation of Akt data points were fitted using a log (agonist) versus response, variable slope (4 parameters) analysis in GraphPad Prism to generate EC50 curves. The CM % agonism reflect the top value of the data points.

Point of comparison: B5, EC50 0.311 nM. Against it:
- B1 — 1.9-fold higher, 0.587 nM
- B2 — 21-fold higher, 6.4 nM
- B3 — 14-fold higher, 4.3 nM
- B4 — 2.2-fold higher, 0.695 nM
- B6 — within 1.5-fold, 0.33 nM
- B7 — 1.8-fold higher, 0.557 nM
- B8 — 1.9-fold higher, 0.58 nM
- B9 — within 1.5-fold, 0.39 nM
- B10 — within 1.5-fold, 0.224 nM

Same assay, conditions: ratio of EC50s Schwann cells/cardiomyocytes

Point of comparison: B5, “Selectivity SC/CM” value 55.4019. Against it:
- B1 — lower, 6.165

B2 was tested, and the “Selectivity SC/CM” value was over 10000.
With B3 the “Selectivity SC/CM” value was over 10000.
In the case of B4, the “Selectivity SC/CM” value is reported as over 10000.
For B6, the “Selectivity SC/CM” value was over 10000.
In the case of B7, the “Selectivity SC/CM” value is reported as over 10000.
B8 was tested, and the “Selectivity SC/CM” value was over 10000.
In the case of B9, the “Selectivity SC/CM” value is reported as over 10000.
With B10 the “Selectivity SC/CM” value was over 10000.

Same assay, conditions: top value of the Akt phosphorylation data points in cardiomyocytes; wild-type control 100

Point of comparison: B6, “CM % Agonism AVG” value 99.83%. Against it:
- B1 — lower, 97.51%
- B2 — lower, 62.7%
- B3 — lower, 72.3%
- B4 — lower, 85.89%
- B5 — lower, 91.65%
- B7 — lower, 96.05%
- B8 — lower, 87.47%
- B9 — lower, 90.65%
- B10 — lower, 97.95%

Molecular target: T2, ErbB3 (Rattus norvegicus, UniProt Q62799)
T2 construct: forming the ErbB2/ErbB4 complex in cardiomyocytes and the ErbB2/ErbB3 complex in Schwann cells; endogenous in cells; host or cells: rat Schwann cells
T2 sequence (Q62799 20-1339): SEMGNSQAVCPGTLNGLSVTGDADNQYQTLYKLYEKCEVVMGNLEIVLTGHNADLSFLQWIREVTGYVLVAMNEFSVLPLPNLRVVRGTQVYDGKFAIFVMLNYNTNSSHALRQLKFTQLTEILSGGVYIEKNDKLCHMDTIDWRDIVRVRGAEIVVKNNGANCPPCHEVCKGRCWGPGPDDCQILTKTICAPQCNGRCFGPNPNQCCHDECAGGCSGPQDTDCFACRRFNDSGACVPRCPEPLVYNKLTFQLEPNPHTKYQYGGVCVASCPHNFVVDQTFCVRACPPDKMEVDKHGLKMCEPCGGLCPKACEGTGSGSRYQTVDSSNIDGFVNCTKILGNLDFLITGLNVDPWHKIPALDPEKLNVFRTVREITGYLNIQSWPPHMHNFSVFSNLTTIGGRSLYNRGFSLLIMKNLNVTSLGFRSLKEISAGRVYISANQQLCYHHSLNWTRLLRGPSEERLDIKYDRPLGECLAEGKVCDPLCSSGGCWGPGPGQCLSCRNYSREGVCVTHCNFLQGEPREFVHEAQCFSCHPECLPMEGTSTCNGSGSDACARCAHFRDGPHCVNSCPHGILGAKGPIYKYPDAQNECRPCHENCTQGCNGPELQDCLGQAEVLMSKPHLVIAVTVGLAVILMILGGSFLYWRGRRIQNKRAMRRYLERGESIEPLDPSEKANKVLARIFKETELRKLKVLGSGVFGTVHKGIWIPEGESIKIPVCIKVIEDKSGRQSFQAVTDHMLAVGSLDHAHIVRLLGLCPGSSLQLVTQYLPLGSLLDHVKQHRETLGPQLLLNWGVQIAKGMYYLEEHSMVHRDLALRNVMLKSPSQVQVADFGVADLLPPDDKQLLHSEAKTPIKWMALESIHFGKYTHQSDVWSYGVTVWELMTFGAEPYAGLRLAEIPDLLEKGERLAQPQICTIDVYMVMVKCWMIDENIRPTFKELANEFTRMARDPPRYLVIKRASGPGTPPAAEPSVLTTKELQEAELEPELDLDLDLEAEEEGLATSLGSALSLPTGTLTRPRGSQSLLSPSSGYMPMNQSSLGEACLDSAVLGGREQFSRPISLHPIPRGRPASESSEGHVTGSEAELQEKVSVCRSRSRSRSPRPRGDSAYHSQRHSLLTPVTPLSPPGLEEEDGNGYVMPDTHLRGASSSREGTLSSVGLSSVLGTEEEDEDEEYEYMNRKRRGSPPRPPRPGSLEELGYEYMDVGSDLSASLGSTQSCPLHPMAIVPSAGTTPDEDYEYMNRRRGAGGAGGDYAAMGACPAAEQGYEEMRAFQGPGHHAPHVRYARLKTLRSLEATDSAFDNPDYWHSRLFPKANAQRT
T2 sequence (P06494 23-1257 partner): as the sequence (P06494 23-1257 partner) above
Assay: In vitro phosphorylation of Akt in rat Schwann cells
Format: cell-based
Details: Akt (Serine 473) phosphorylation, 15 minutes treatment
Protocol: as §1, §2, §3

For B2, the “Schwann cells (SC) (ErbB3) Avg EC50 (M)” value was “inactive”.
In the case of B3, the “Schwann cells (SC) (ErbB3) Avg EC50 (M)” value is reported as “inactive”.

Same assay, conditions: Akt (Serine 473) phosphorylation, 15 minutes treatment, read-out: Schwann cells (SC) (ErbB3) Avg EC50

Point of comparison: B9, EC50 10000 nM. Against it:
- B1 — 2800-fold lower, 3.62 nM
- B4 — the same, 10000 nM
- B5 — 580-fold lower, 17.2 nM
- B6 — the same, 10000 nM
- B7 — the same, 10000 nM
- B8 — the same, 10000 nM
- B10 — the same, 10000 nM
